Experimental data taken from the DeepSol protein solubility set.

Assay: soluble on expression in E. coli; label from the status in PepcDB or PDB records

Row | Sequence | soluble on expression in E. coli
1 | MGHHHHHHSHMPFTPPVVKRLLGWKKSAGGSGGAGGGEQNGQEEKWCEKAVKSLVKKLKKTGRLDELEKAITTQNCNTKCVTIPSTCSEIWGLSTPNTIDQWDTTGLYSFSEQTRSLDGRLQVSHRKGLPHVIYCRLWRWPDLHSHHELKAIENCEYAFNLKKDEVCVNPYHYQRVETP | soluble
2 | MPDFKIVISDPQSVEPKRIKVKVKASDQVKSITGEKDGKAVPQAKVNEKTKQLLNVDTLLTLEITKQEGDKKVKVKGHFKVDVDNSVPDNEVWISKTMAEKFGAEDFEAFAYRTKTLQISVDQNKATNLVGLKIGDVFEANQLIGLPVKLKITGGSDNSGFPMRFDVIGAAKRKILLSGPPGFYPNENGERRRKTIRGNTISQEIVQINTIIVRLEHHHHHH | soluble
3 | MTNYVKKVSIEDFGCQFLHTAHWNNRLRTTGGRFFPNDRHLDFNPKIYREFGIDIFRKIVRHELCHYHLYIQGKGYQHRDKAFKELLEKVDGLRYTPRVTAVKVNYHHYSCQSCGQVYRRRRRVNLRKFACGYCHGRLIESFLEHHHHHH | not soluble
4 | MEALADVGVLASWSPLHKQVEVIDYYPDGRPHHVRATVKILGLVDKEVLEYHWGPDWVCWDADQTFQQHGQHIEYTVKPEGVDRARVRFDITVEPAGPIPGFIVKRASEHVLDAAAKGLQKLIAGAGDQGNAKSLEHHHHHH | not soluble
5 | INLPWYLSPIAIPVTQILSAVSPLPRYAPGHKPYFPKPFEDNPLSQSAGRYQWFRNLYTEKPELQVGGPSTRWVWQGLMAAKQCFLLTRQVKVPVLLVQAGNDRIVSNLAQKRFIEKLRKTNPHAALLSIEGAQHEILFETDQYRNQALDAIFRFMDDPTSSSDEKMQ | not soluble
6 | MPGRKRKLAAKTAELAPEAGEGSESTSLVGSADASASTAAGVAHTEQQEMPSGGLHESFLESIPPAASFLEELAWVESLASPSYVAYLCQMRRFDDVVAQRRLTTLQRWRQDPAYRQHVSQPIALFFLEQLCSAEFREALRHPAVAALYERQVDLYRRCYGNLLNTGESRVLR | not soluble
7 | AIIWRRAANLVLLDETGRRVDDLAFRSERADLAVIAGEGAERAVPEALEILSAARPILNRVRGLVRMGERRWDIVLDRGQRVLLPVEDPVAAVERMIALDEAEDLLDRDVISVDLR | not soluble
8 | MRLRAILASLALALTSLGAQAETIRVAIGTQDTTINCAAGGLLIRELGLLEKYLPRDGRYKDADYRVEWKNFTSGAPLTNEMVAGKLDFGAMADFPGTFNGVAFAAAGKRSLFISVLSGSTRGSGNGIVVPSGSPVQSLAELKGQTISVPFASTAHGMLLRAVAAQGWDPQRDVTIIAQPPEIAGSALQANKIAAHADFVPFAELFPNRGFARKIYDGSQANAPTFHGALVDAAYAERYPEVVVAYLRASIEANRLLAAEPEKYSELIEKVTGIEAEVNYLFHGPLGLQTRDQAWKPEYRQALATSIDTLKLLKKADRGLDVERFVDDRYIREAYRQAGLDYQAALADYAPSPLRASDARSGRPIEEFERVAQIWVKGEARVRHYASPESALADLAELKAQGKAIRAIYAQDRDSGIKLLANQAWFVRDGEGRLNAFLLREQAQDYARRHGGEVRDFAAASQQALALR | not soluble
9 | MPKYYEDKPQGGACAGLKEDLGACLLQSDCVVQEGKSPRQCLKEGYCNSLKYAFFECKRSVLDNRARFRGRKGY | not soluble
10 | GPGSMALVHTTYPQCLSLVEADTAEAEVQQALEDGANTLYFSHHFNYTDVPPSIAALREQLEVLHIDNNYPFTTISPRVTALTNLRWLNASYCSLRSVDSSISRLSKLERLTLNNNMLTWLPLDVWQLKALEELHIDNNQLNVLPGCLLFLPRLRVLTLENNPLYTHEEVNGAAAATYIPVQCSVDCSACCIRSRNYKVFVTFHTIVGHSDVPFVHVVCSDECAVHVRSRLEAYDRAHANQP | soluble
11 | MYALFLLASLLGAALAGPVLGLKECTRGSAVWCQNVKTASDCGAVKHCLQTVWNKPTVKSLPCDICKDVVTAAGDMLKDNATEEEILVYLEKTCDWLPKPNMSASCKEIVDSYLPVILDIIKGEMSRPGEVCSALNLCESLQKHLAELNHQKQLESNKIPELDMTEVVAPFMANIPLLLYPQDGPRSKPQPKDNGDVCQDCIQMVTDIQTAVRTNSTFVQALVEHVKEECDRLGPGMADICKNYISQYSEIAIQMMMHMQPKEICALVGFCDEVKEMPMQTLVPAKVASKNVIPALELVEPIKKHEVPAKSDVYCEVCEFLVKEVTKLIDNNKTEKEILDAFDKMCSKLPKSLSEECQEVVDTYGSSILSILLEEVSPELVCSMLHLCSGTRLPALTVHVTQPKDGGFCEVCKKLVGYLDRNLEKNSTKQEILAALEKGCSFLPDPYQKQCDQFVAEYEPVLIEILVEVMDPSFVCLKIGACPSAHKPLLGTEKCIWGPSYWCQNTETAAQCNAVEHCKRHVWN | soluble
12 | MAHHHHHHMLQWVVKEVEGPFGNIATIHWAVPEGQDDGESSDNTAESQKLHHKVGQGGKVQPELQHLLEDAEDQLGAVLWNSNSVAMGHLQKHVLQNHDKACHVVELGAGVGCLGIGLAMAGARVVITDMKELVPLMEKNIELNKERILSRSNGKGSCVAMTWRWGPPPLVKQKHNAKRVKINNARQHSSNADVPSAQNERGRSPYLLPSPAFVEMQRLLDHVDLVVLCDALYGNPKSWPQLLYTLSEILAANPRCEVINFCEQRVDDVEGDFLNLLQQENAKLPPPANSAVGPEGNETMEEALLRMRGSYKWSTSTEVVGEGPSDLGMPVRVTRISWVHRSGKWGTGASTASRDVVVDGADLGR | not soluble
13 | MGSDKIHHHHHHMKLAVISSIYKNDSLSKIKQSLQSLLNQENVTCDIYLYCDGPVSIDIVHFLDSFDQNSLYIFKQEQNRGLAHALNELLNIVLTKEYEYIARMDADDISMPERFVKQIAFMNSHPDIDCLGTWAIEIDDDGKEYFRKKMPITHEECLELFKKRDCMIHPTVMFRRSYFEKAGLYPEDTYFGEDTMMWAKGFKSGCKFANVPEYLFKFRLDSNFFERRRGWKHAKSIYTLRHRVNRMLGFGWKEDCYALLYAMAKLMPKSILDIIYKTVR | not soluble
14 | MDDILVTSDLTSRYKISRKTLWSWQSADTMPRGFVCPFPPPDWPGNPNRWRSESIKEWEDKKKIN | not soluble
15 | MGSDKIHHHHHHMSKMLTLAVRAHDVGTKISPVELAKKIAETNITSIQFALGISYPEYASAAVLSPGLGSQLKNIFEDEKITISVLSCYINLIHPDLEEREKRLHQFETYIRYDSMFGAKIVATETGSIYETIYYTEDNYTEEAYEEVLFSVRRLCREAEKYGIIVGIEPGINHPIHTIEKMQRLIDEVASTNLGIILDPTNLIRVDIDKTYLEIVEEAFECFGEKIVAFHLKDFIIRNQQIFPVAIGEGQVPLTETIQFLNKHKPGLFTIFEETPFEKIASAYQKVSQYHSI | not soluble
16 | GMPQHDKSRLVRIDTGPMINPVAGKPSRPIAGDASFRTVTAFEGGQGKVESGVWESTSGSFQSNTTGYIEYCHIIEGEARLVDPDGTVHAVKAGDAFIMPEGYTGRWEVDRHVKKIYFVTHLA | soluble
17 | SVFKFIDLPQEEPRPSGGGKVTDLVLDNPHAQDCWPNQGHMDVQGLTVKYTEAGRSVLQNLSFTVEAGQSVGVLGRTGSGKSTLLSALLRLASTDGEISIDGVSWNSVTLQTWRKAFGVVPQKIFILTGTFRMNLDPHACHSDEELWRVAEEVGLKSVIEQFPDKLDFQLEDGGYVLSNGHKQLMCLARSILSKARILLLDEPSAYLDPITLQVLRKTLKQSFSNCTVILSEHRVEPLLECQSFLMIEGSSMKRYDSIQKLLNETSHLKQAISAAERLKLFPLHRLNSSKRPPQSQQPKITALQEEAEDEVQDTRL | not soluble
18 | MDPFGTYKTAISARATDKAILKKSQDGGIISASYIYGLENGLLDGVIVANTEDGFKAAPKIATTPEEVLSAAGTKYTVSPNVSVLKDAVREYALEKVGIVGTPCQVRAIRKLMKYPMGFRHTDSKIALVMGIFCMENFPYEGMKAIVEQYAGIRMNDVLKTDIGKGKFWVYSKSGDVKAVPLKDTHMYEQKSCHVCMDYTAELADISTGSVGSPDGWSTIFVRTAKGEEYLNKMVEAGALETKPIDDVKPGLDLVQKLALQKKEKNDKEIAHRKEIGLPVPYLEHHHHHH | not soluble
19 | MGSDKIHHHHHHMSNQKIIRLSPNPQDFGHDCDDLDPQMFASELPVQHTHVYYEDDNLGLYIGVWDTSTMVEAAAPSPCDEFMYLLEGEVEIKNSKTGTMEKVQAGEAFVIPKGYDCQWHQTGYLRKFFVISEHPKEDIPTTPVVEGIIKLKVNNSSQMAIEDSTGVEIEPTNTPFVIKGKEPAQKHLPSYKDHTGKFIAGTWHSEAFNSEMQPFPRNEFIYLQSGSLVITEQEGDEQVFTAGDAFFVPQGALCSWRSIGDVHTFYAILQSS | not soluble
20 | MIPTERRQIILDMVAEKGIVSIAELTERMHVSHMTIRRDLQKLEQQGAVIQVSGGVQSSTRVAHEPSHQIKTELATPQKAAIGKLAASLVQPESCIYLDAGTTTLAIARQLVTMNKLTVVTNDFVIADYLMDNSNCTIIHTGGAVCRENRSCVGEAAATLLRGLMIDQAFISASSWSVRGISTPAEDKVTVKRAVASASRQKILVCDATKYGQVATWLALPLAEFNQIVTDDGLPESAIRALAKVDISLLMAKQ | not soluble
21 | MSLKRVIGYIRVSTDNQDLERQRVLIRKYCENKGYSLLRIEEDYAISGTVSNRNGLNSILNITNSVADMVVVSELSRLSRQDDIFETLTQIHTIIRNVDLVILDEPDKVYEAGKTIILSDFLMLAIKAYGAADERKKIVSRMTTGKDSKVQAFPLMLTDSNIPTGFKAVPNPNYIKGATPKMLLVEDEERMQLVRDIFNYVANGLSLGKTAEKLNMLGYRTARNKPFYEQSIRTIINDSIYNGVRYWKGMKLELPVKFISDEIWNLAHKKVQENKNYSGEGHHHHHH | soluble
22 | MPGINGAGPSNFFWQWRTDGEPVTEREHDSSRSASSANSPELPPPASPAESGRQRLLRSSALSRQTREWLEATPARVQGATPPAEARQSPEAQQAERIVQELVRGGADLNNVRTMLRNVMDNNAVAFSRVERDILLQHFPNMPMTGISSDSVLANELRQRLRQTVRQQRIQSSTPARLADSSSGSSQRSLIGRSTMLMTPGRSSSSSAAASRTSVDRHPQGLDLESARLASAARHNHSANQTNEALRRLTQEGVDMERLRTSLGRYIMSLEPLPPDLRRALESVGINPFIPEELSLVDHPVLNFSAALNRMLASRQTTTNSPELPPLASSAESGRRRLLRSPPLLSGQREWIEQSMRQEAEPQSSRLNRAVRLAVMPPQNENEDNVAYAIRLRRLNPGADVSRVVASFITDPAARQQVVNDIRAALDIAPQFSQLRTISKADAESEELGFRDAADHPDNATSCLFGEELSLSNPDQQVIGLAVNPTDKPQPYSQEVNKALTFMDMKKLAQYLADKPEHPLNRQRLDAKNIAKYAFKIVP | not soluble
23 | MGSDKIHHHHHHMEGEYRALNDISLESNVLFFGKESCLPNYFYPGNNVRKNYVIHYILKGKGTFSSANHPSIELKAGDIFILPKGIPCFYKADGKEPWTYLWIGFSGLKIKNILSRSLLLSQRYLHQVQNSHFTDSLLKLFDALHNPDTSTNNDLLIESLIYQTFYYLNSEYPAQNKTNIKSSIRLKTATKYLYDNFTDNNCSIYLLCNKLGVSRSYLYNIFKEGMNLSPQQFLIKLRMEEAKNKLKNSQNSIQEISTSVGYTDTFTFSKAFKKYSGFSPKNYRQIKSSEN | not soluble
24 | MGSDKIHHHHHHMRWNRMNPFGSYKKVVSARSTLKEVLKKAQDGGIVSTAFIYGLENNLLDGVIVADNAGEFKAVPKVATTPEEVLEAAGTKYTVCPNISVLKSAVREYGCEKIGVVGTPCQVRAVRKLMKYPVGFRHVPDKIALIIGIFCMENFPYYGLKLIVEEHCGVKMEDVVKMDIGKGKFWVYTRWGETKAIKLKETHPYEQIACHVCTDYTAELADISTGSVGSPDGWSTVFIRTAKGEEIFNKMVEDGYLEVKPIEEVKPGLGLVEKLALQKKEKNMKEIEHRKELGLPIPY | not soluble
